Consider two molecules from publication PMC10197130, “Disulfide-Bond-Induced Structural Frustration and Dynamic Disorder in a Peroxiredoxin from MAS NMR” (Journal of the American Chemical Society, 2023).

One data set has as its target Tsa1 S78D mutant (yeast). Description: SEC; size-exclusion chromatography of the S78D mutant (Figure S2C).
Data set [1] concerns the molecule itself. Put plainly: SEC-MALS; Superdex Increase 200 10/300 GL, phosphate buffer (PBS or 50 mM KPi KCl pH 7.4), RT (ca. 297 K); decamer also reinjected alone, with TCEP and after H2O2 treatment.
Data set [2] concerns the molecule itself. Description: methyl-detected diffusion-ordered NMR spectroscopy (DOSY); solution, deuterated Ile/Leu/Val methyl-labeled sample, series from 25 to 60 °C; temperatures above the midpoint at ca. 315 K.

Regarding Tsa1 S78D mutant (enzyme), the stoichiometry N in the data set with Tsa1 S78D mutant (yeast) is 2.

B1: Tsa1 wild type (2-Cys peroxiredoxin from yeast) (enzyme, UniProt P34760 1-196, looked up)
chain: MVAQVQKQAPTFKKTAVVDGVFDEVSLDKYKGKYVVLAFIPLAFTFVCPTEIIAFSEAAKKFEEQGAQVLFASTDSEYSLLAWTNIPRKEGGLGPINIPLLADTNHSLSRDYGVLIEEEGVALRGLFIIDPKGVIRHITINDLPVGRNVDEALRLVEAFQWTDKNGTVLPCNWTPGAATIKPTVEDSKEYFEAANK
modifications: disulfide bond between Cys47 (CP) of one subunit and Cys170 (CR) of another subunit in the oxidized state (as purified or after H2O2); free thiols in the reduced state (TCEP or DTT)
notes: Tsa1, 2-Cys peroxiredoxin from yeast, wild type, plasmid pET19b-Tsa1 corresponding to UniProt entry P34760, codon-optimized; No removal of the His tag is described; Decamer of five dimers (ca. 216 kDa) at ambient temperature; also called Tsa1^WT; Tsa1^ox; source: E. coli BL21(DE3), purified (Ni2+-HisTrap, gel filtration on Superdex S200 increase); copies: 10
B1: the “stoichiometry N” value amounted to 10 in data set [1] and 2 in data set [2].
